{"source": "FireProtDB (doi:10.1016/s0022-2836(02)00630-7)", "details": "Escherichia coli (strain K12), pH 7, CD, Potassium phosphate 10 mM, reversible: yes", "data": [{"substance": "Phosphocarrier protein HPr wild type, P0AA04", "values": [{"measurement": "denaturant m value", "setting": "25 °C, Urea", "result": 1.06, "unit": "kcal/mol/M"}, {"measurement": "denaturant midpoint (higher = more stable)", "setting": "25 °C, Urea", "result": 4.34, "unit": "M"}, {"measurement": "Tm", "setting": "Thermal", "result": 63.4, "unit": "°C"}, {"measurement": "unfolding enthalpy (van 't Hoff)", "setting": "Thermal", "result": 75.8, "unit": "kcal/mol"}]}]}
